Measurements taken from publication PMC8251803.

Target: cytochrome c oxidase from Aquifex aeolicus (AaCcO), protomer of subunits CoxA2, CoxB2 and IIa (Aquifex aeolicus) (UniProt O67937)
Test: cryo-EM structure; single-particle cryo-EM with 3D classification (RELION) of the sample purified from native A. aeolicus membranes by anion exchange and size-exclusion chromatography; fractions with a dominant band around 242 kDa in Blue Native PAGE; two classes of particles (dimeric complex III, dimeric AaCcO); AaCcO dimer at 3.4 Å

cytochrome c oxidase from Aquifex aeolicus (AaCcO), protomer of subunits CoxA2, CoxB2 and IIa (from UniProt O67937 1-592) (complex)
stoichiometry N: 2
